Test results published in patent US20150051149A1 (published 2015).

Key:
DRB*0701 = DRB*0701 (human); assay: HLA competition binding
DRB*0301 = DRB*0301 (human, UniProt P01903 26-216); assay: HLA competition binding

| IC50 (DRB*0701) [nM] | IC50 (DRB*0301) [nM] | Binder |
| --- | --- | --- |
| 500 | 1000 | MGEVVAATPTSLLIS [N-terminal to BC Loop SEQ ID NO 53] |
| 1000 | – | PTSLLISWDAPAVTVRYYRITYG [BC Loop SEQ ID NO 58] |
| > 200000 | – | PVQEFTVPGSKSTATISGLK [DE Loop SEQ ID NO 51] |
